Measured values from IntAct's records for PubMed 24114786.

Legend:
bak1_arath BAK1 = bak1_arath BAK1 (UniProt Q94F62)
flica_pseai fliC = flica_pseai fliC (UniProt P21184)
Sequence of flica_pseai fliC (P21184 whole entry): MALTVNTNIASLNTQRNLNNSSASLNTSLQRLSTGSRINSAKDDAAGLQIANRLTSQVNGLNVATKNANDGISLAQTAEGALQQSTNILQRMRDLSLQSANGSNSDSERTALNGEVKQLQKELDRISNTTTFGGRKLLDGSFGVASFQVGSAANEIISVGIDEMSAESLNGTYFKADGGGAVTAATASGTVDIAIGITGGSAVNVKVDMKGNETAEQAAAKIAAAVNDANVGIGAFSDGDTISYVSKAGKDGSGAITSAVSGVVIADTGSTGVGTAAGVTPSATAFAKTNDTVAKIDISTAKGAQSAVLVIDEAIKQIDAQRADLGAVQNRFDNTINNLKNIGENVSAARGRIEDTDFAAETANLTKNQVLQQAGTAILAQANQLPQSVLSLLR

Sequence of bak1_arath BAK1 (Q94F62 whole entry): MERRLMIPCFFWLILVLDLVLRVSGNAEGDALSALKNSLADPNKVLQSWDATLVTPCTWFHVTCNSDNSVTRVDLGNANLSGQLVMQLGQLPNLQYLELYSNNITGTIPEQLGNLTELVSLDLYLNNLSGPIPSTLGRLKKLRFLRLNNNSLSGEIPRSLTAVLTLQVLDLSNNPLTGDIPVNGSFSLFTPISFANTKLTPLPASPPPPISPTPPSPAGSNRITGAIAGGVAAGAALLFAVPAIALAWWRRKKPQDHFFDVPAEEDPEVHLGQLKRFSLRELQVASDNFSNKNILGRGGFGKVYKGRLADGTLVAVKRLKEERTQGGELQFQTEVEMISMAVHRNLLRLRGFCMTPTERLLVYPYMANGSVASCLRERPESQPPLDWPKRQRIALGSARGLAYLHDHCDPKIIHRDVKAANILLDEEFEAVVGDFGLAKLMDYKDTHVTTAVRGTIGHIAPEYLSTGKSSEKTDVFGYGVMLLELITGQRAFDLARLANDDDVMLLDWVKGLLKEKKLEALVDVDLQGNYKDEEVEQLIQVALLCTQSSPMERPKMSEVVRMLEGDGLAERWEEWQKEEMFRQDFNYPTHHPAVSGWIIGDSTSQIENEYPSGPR
Sequence of LRR receptor-like serine/threonine-protein kinase FLS2 (Arabidopsis thaliana (Mouse-ear cress)), Q9FL28 D414A (Q9FL28 whole entry D414A): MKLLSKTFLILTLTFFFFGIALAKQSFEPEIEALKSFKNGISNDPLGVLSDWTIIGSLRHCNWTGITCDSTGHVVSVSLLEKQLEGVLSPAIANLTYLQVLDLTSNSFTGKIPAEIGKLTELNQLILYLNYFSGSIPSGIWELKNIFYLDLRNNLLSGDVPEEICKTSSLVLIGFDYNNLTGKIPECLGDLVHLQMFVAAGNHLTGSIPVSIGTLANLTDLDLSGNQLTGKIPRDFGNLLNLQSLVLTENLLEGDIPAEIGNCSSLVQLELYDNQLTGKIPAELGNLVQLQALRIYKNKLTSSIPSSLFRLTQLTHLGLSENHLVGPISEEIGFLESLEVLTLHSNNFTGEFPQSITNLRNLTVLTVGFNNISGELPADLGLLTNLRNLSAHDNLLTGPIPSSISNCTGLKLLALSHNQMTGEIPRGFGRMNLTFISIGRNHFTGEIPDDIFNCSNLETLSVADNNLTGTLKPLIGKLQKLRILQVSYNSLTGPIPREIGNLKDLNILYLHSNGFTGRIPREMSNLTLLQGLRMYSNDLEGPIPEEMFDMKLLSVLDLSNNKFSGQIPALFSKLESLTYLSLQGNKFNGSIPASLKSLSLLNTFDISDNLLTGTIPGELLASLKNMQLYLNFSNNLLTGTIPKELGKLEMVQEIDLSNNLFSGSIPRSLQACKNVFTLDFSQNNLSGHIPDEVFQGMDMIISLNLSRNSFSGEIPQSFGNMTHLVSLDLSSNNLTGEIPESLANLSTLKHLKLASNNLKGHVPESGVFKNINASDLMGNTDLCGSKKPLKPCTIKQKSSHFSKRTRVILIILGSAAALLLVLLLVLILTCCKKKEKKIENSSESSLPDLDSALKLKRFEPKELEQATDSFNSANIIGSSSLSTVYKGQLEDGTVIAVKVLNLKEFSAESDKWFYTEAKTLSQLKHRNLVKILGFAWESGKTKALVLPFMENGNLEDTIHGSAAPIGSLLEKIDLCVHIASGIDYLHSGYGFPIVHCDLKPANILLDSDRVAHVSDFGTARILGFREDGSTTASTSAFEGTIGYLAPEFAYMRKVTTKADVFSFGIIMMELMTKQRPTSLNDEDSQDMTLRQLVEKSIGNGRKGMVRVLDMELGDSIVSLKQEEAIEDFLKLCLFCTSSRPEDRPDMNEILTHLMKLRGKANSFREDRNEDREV
Sequence of LRR receptor-like serine/threonine-protein kinase FLS2 (Arabidopsis thaliana (Mouse-ear cress)), Q9FL28 R294A;H316A (Q9FL28 whole entry R294A/H316A): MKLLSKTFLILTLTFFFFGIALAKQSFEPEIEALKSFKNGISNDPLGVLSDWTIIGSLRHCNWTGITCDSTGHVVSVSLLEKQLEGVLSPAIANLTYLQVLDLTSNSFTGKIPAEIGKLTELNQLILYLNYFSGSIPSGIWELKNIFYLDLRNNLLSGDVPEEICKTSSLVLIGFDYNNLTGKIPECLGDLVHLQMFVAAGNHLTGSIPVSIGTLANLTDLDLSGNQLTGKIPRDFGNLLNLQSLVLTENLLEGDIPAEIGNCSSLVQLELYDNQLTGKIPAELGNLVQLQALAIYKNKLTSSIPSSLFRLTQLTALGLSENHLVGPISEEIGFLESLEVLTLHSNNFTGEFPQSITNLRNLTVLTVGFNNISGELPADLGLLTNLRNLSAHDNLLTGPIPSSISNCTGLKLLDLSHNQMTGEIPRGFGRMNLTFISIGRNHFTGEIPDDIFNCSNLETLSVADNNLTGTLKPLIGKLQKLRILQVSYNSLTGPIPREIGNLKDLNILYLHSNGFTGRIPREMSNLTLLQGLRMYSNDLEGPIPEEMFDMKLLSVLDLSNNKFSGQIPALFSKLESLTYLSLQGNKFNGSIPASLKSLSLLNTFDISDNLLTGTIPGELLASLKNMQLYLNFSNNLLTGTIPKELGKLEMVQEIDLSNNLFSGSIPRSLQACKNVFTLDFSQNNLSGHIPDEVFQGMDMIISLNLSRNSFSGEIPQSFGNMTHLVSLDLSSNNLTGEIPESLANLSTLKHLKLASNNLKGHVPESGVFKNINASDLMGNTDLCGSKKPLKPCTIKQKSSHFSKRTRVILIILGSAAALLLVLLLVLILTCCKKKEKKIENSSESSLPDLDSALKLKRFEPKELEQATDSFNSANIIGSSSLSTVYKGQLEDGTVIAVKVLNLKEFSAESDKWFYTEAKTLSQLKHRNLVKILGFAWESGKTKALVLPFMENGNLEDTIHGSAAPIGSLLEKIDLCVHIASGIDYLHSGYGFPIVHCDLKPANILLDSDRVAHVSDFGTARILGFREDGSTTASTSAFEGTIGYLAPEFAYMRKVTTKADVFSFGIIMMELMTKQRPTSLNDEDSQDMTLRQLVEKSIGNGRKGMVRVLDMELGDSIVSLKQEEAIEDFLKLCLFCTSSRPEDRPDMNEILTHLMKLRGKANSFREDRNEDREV
Sequence of LRR receptor-like serine/threonine-protein kinase FLS2 (Arabidopsis thaliana (Mouse-ear cress)), Q9FL28 S437Y (Q9FL28 whole entry S437Y): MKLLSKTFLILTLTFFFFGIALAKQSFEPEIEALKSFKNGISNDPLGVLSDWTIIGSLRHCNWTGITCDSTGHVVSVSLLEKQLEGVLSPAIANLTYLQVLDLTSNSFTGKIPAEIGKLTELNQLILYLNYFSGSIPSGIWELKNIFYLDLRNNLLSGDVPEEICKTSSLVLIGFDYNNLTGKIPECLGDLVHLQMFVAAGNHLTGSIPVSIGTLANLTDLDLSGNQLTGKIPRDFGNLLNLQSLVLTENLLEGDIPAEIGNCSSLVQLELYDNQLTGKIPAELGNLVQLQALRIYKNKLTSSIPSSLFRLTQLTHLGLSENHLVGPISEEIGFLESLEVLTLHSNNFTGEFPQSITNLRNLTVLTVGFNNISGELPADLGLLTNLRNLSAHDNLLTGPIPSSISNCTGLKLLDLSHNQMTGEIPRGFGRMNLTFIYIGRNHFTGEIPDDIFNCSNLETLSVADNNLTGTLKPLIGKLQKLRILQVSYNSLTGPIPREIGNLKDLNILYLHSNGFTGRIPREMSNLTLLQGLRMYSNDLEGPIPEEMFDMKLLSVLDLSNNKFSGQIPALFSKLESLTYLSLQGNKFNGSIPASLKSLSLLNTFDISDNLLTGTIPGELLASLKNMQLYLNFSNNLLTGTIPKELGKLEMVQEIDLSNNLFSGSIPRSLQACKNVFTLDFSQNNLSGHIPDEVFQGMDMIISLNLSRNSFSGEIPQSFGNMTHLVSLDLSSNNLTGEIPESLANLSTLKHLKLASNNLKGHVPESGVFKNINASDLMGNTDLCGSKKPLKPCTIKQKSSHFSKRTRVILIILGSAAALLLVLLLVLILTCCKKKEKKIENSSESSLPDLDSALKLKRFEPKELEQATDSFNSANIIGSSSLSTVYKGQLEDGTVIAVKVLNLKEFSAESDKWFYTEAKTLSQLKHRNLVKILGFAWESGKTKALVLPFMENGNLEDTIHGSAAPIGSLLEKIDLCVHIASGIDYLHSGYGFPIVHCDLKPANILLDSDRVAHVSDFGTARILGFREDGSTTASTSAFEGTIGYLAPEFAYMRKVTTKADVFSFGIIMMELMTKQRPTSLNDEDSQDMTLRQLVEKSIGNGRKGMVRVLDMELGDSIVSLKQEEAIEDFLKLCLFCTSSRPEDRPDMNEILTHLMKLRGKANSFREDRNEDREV

Row | Substance | effect of a mutation on the interaction (bak1_arath BAK1) | effect of a mutation on the interaction (flica_pseai fliC)
1 | LRR receptor-like serine/threonine-protein kinase FLS2 (Arabidopsis thaliana (Mouse-ear cress)), Q9FL28 R294A;H316A | disrupting interaction strength | disrupting interaction strength
2 | LRR receptor-like serine/threonine-protein kinase FLS2 (Arabidopsis thaliana (Mouse-ear cress)), Q9FL28 S437Y | decreasing interaction strength | decreasing interaction strength
3 | LRR receptor-like serine/threonine-protein kinase FLS2 (Arabidopsis thaliana (Mouse-ear cress)), Q9FL28 D414A | decreasing interaction strength | decreasing interaction strength
4 | LRR receptor-like serine/threonine-protein kinase FLS2 (Arabidopsis thaliana (Mouse-ear cress)), Q9FL28 T342Y | disrupting interaction strength | disrupting interaction strength
